Assay results taken from patent US5705143A, “Biological targeting agents” (Amersham International PLC, priority 1994, dated 1998).
“Also recorded” adds a separate entry of the source. Bridge positions count the residues as written; N and C are the ends. Square brackets hold non-standard residues; d marks the D form. Peptide text beside a SMILES is read from it. * marks the point of attachment. Phe(ol) = N[C@H](CO)Cc1ccccc1; NHCH(CH2OH)2 = OCC(CO)N*

Assays:
[1] = test system: growth hormone; conditions: relative to somatostatin = 100%; cited from earlier work
[2] = test system: receptor; conditions: Babich et al; in words; cited from earlier work
[3] = in words; cited from earlier work
[4] = test system: somatostatin receptors; assay: Biodistribution in rats: uptake/retention in adrenals and pancreas (somatostatin receptor-enriched tissues); assay type: in vivo, Male Wistar rats; conditions: rat, i.v.; for Adrenal % Injected dose / Adrenal Relative concentration / Pancreas % Injected dose / Pancreas Relative concentration: carrier free (CF)
Experimental: In the present invention the peptides studied were radiolabelled with either ^123 I or ^99m Tc and their biodistributions studied in rats with organs of particular interest being the adrenals and pancreas. This is because somatostatin receptors have been shown in vitro to be enriched in a number of tissues including adrenals^(11,12), pancreas^(13,14), pituitary^(11,14) and brain^(15). […] Brain somatostatin receptors are not visualised when the compound is administered in vivo. In this study measurement of pituitary uptake was not sufficiently sensitive to distinguish specific and non-specific effects.
Carrier Effect on ^123 I--Compounds 1 and 6
For ^123 I--Compounds 1 and 6 the effect of carrier peptide on the biodistribution of the carrier-free ^123 I peptide was assessed by preparing 2 ml of a phosphate buffered solution of HPLC-purified carrier-free iodinated peptide as described above but then subdispensing 1 ml of this solution into a second vial containing carrier peptide.
A similar `carrier-effect` is anticipated for technetium labelled peptides, therefore the only valid comparison of biodistribution data for ^99m Tc and ^123 I labelled peptides is when both are carrier-added (CA).
(§1) Male Wistar rats were injected intravenously, under light anaesthesia with the test agent. At 2 minutes, 1 hour and 4 hours post-injection animals were sacrificed by cervical dislocation and various organs and tissue samples were removed for assay of radioactive content. The percentage injected dose in all dissected organs was calculated. In addition the % dose/gram tissue and the relative concentration of activity was calculated for selected organs. Relative concentration is the proportion of total activity in the organ divided by the proportion of bodyweight comprised by the organ. Thus, if a compound is uniformly disseminated throughout the body according to tissue weight then a given organ will have a relative concentration=1. A relative concentration>1 implies sequestration and/or retention of the compound and is a useful index where the absolute uptake (% injected dose per organ) is low.
(§2) Organs in which the test agent were looked for included the adrenals and the pancreas, where somatostatin receptors are known to be enriched (vide supra).

[5] = Biodistribution in rats: blood, kidney/bladder/urine, liver, gut, thyroid; assay type: in vivo, Male Wistar rats; conditions: rat, i.v., carrier free (CF)
Experimental: as §1, §2

[6] = Metabolic stability in rat kidney homogenate; assay type: in vitro ADME; conditions: 37° C., approx. 1 and 3 hours, HPLC; FIG. 1; in words
Experimental: Rat brain and kidney homogenates were produced by homogenising brain (1.71 g) and kidneys (2.41 g) in 10 vols phosphate buffered saline and centrifuging at 2000 rpm for 5 minutes.
Compound 4 (50 μg) was radiolabelled by stannous reduction of ^99m TcO4^- (0.2 GBq) at pH 9.0.
^99m Tc-Compound 4 solution (200 μl) was mixed with phosphate buffered saline (800 μl, control) rat kidney homogenate (800 μl) and rat brain homogenate (800 μl) and incubated at 37° C. HPLC analyses using the system described in Example 13 for ^99m Tc labelled peptides were performed on each sample at approx. 1 and 3 hours post-mixing.

[7] = test system: carboxypeptidases; conditions: in words; cited from earlier work

In the case of `C[C@H](O)[C@@H](NC(=O)[C@@H]1CSSC[C@H](NC(=O)[C@H](N)Cc2ccccc2)C(=O)N[C@@H](Cc2ccccc2)C(=O)N[C@H](Cc2c[nH]c3ccccc23)C(=O)N[C@@H](CCCCN)C(=O)N[C@@H]([C@@H](C)O)C(=O)N1)C(N)=O` [D-Thr(NH2)], the “Relative potency (%) of growth hormone inhibition in vivo” value [1] is listed as 1160%.
For `C[C@H](O)[C@H](CO)NC(=O)[C@@H]1CSSC[C@H](NC(=O)[C@H](N)Cc2ccccc2)C(=O)N[C@@H](Cc2ccccc2)C(=O)N[C@H](Cc2c[nH]c3ccccc23)C(=O)N[C@@H](CCCCN)C(=O)N[C@@H]([C@@H](C)O)C(=O)N1` [D-Thr(ol)], the “Relative potency (%) of growth hormone inhibition in vivo” value [1] is listed as 1100%.
For `CSCC[C@H](NC=O)C(=O)N[C@@H](CC(C)C)C(=O)N[C@@H](Cc1ccccc1)C(=O)NCCCCCCNC(=O)c1ccc(NN)nc1` [HP3, fMLFNH(CH2)6 NH--HYNIC], the “in vitro receptor binding affinity” value [2] is listed as “marginally better in vitro receptor binding affinity than HP2”.
For `C[C@@H](O)[C@@H]1NC(=O)[C@H](CCCCN)NC(=O)[C@@H](Cc2c[nH]c3ccccc23)NC(=O)[C@H](Cc2ccccc2)NC(=O)[C@@H](NC(=O)[C@H](N)Cc2ccccc2)CSSC[C@@H](C(=O)N[C@H](CO)[C@@H](C)O)NC1=O` [Octreotide], the biological half-life [3] is listed as “much longer biological half-life than natural somatostatin”.
For `C[C@@H](O)[C@@H]1NC(=O)[C@H](CCCCN)NC(=O)[C@@H](Cc2c[nH]c3ccccc23)NC(=O)[C@H](Cc2ccccc2)NC(=O)[C@@H](NC(=O)[C@H](N)Cc2ccccc2)CSSC[C@@H](C(=O)N[C@H](CO)Cc2ccccc2)NC1=O` [Phe(ol)] (H-[dF]CF[dW]KTC[Phe(ol)]; disulfide 2-7), the “Relative potency (%) of growth hormone inhibition in vivo” value [1] is listed as 650%.
In the case of `C[C@@H](O)[C@@H]1NC(=O)[C@H](CCCCN)NC(=O)[C@@H](Cc2c[nH]c3ccccc23)NC(=O)[C@H](Cc2ccccc2)NC(=O)[C@@H](NC(=O)[C@H](N)Cc2ccccc2)CSSC[C@@H](C(=O)NC(CO)CO)NC1=O` [Ser(ol)] (H-[dF]CF[dW]KTC-{NHCH(CH2OH)2}; disulfide 2-7), the “Relative potency (%) of growth hormone inhibition in vivo” value [1] is listed as 2800%.
In the case of `C[C@@H](O)[C@@H]1NC(=O)[C@H](CCCCN)NC(=O)[C@@H](Cc2c[nH]c3ccccc23)NC(=O)[C@H](Cc2ccccc2)NC(=O)[C@@H](NC(=O)[C@H](N)Cc2ccccc2)CSSC[C@@H](C(=O)N[C@H](CO)[C@@H](C)O)NC1=O` [Thr(ol)], the “Relative potency (%) of growth hormone inhibition in vivo” value [1] is given as 7000%.
In the case of I-SS14: 123I labelled Somatostatin-14, the “somatostatin (SS) receptor binding in adrenals and pancreas” value ([4]; 2 min, 1 and 4 hours p.i., in words, listed as 123 I-SS14) is reported as “can be detected in the adrenal glands and pancreatic tissue; also recorded: marked SS-like binding of ^123 I-SS14 at 2 minutes post-injection (p.i.), but this activity was not retained at 1 and 4 hours p.i”, the “Adrenal % Injected dose” value ([4]; 2 min pi) is reported as 0.19 % Injected dose and the “Adrenal Relative concentration” value ([4]; 2 min pi) is reported as 7.6. For the same compound, the “Pancreas % Injected dose” value ([4]; 2 min pi) was 2.3 % Injected dose, the “Pancreas Relative concentration” value ([4]; 2 min pi) was 4.5 and the “Adrenal % Injected dose” value ([4]; 1 hr pi) was 0.01 % Injected dose. For the same compound, the “Adrenal Relative concentration” value ([4]; 1 hr pi) was 0.4, the “Pancreas % Injected dose” value ([4]; 1 hr pi) was 0.3 % Injected dose and the “Pancreas Relative concentration” value ([4]; 1 hr pi) was 0.6. For the same compound, the “Adrenal % Injected dose” value ([4]; 4 hr pi) was 0.01 % Injected dose, the “Adrenal Relative concentration” value ([4]; 4 hr pi) was 0.3 and the “Pancreas % Injected dose” value ([4]; 4 hr pi) was 0.2 % Injected dose. The “Pancreas Relative concentration” value ([4]; 4 hr pi) was 0.4, the “Blood % Injected dose” value ([5]; 2 min pi) was 16.2 % Injected dose and the “Gut % Injected dose” value ([5]; 2 min pi) was 9.9 % Injected dose. For the same compound, the “Kidney, Bladder & Urine % Injected dose” value ([5]; 2 min pi) was 3.4 % Injected dose, the “Liver % Injected dose” value ([5]; 2 min pi) was 7.2 % Injected dose and the “Thyroid % Injected dose” value ([5]; 2 min pi) was 0.11 % Injected dose. The “Blood % Injected dose” value ([5]; 1 hr pi) was 5.5 % Injected dose, the “Gut % Injected dose” value ([5]; 1 hr pi) was 19.9 % Injected dose and the “Kidney, Bladder & Urine % Injected dose” value ([5]; 1 hr pi) was 9.9 % Injected dose. For the same compound, the “Liver % Injected dose” value ([5]; 1 hr pi) was 2.2 % Injected dose, the “Thyroid % Injected dose” value ([5]; 1 hr pi) was 1.10 % Injected dose and the “Blood % Injected dose” value ([5]; 4 hr pi) was 6.1 % Injected dose. For the same compound, the “Gut % Injected dose” value ([5]; 4 hr pi) was 12.1 % Injected dose, the “Kidney, Bladder & Urine % Injected dose” value ([5]; 4 hr pi) was 17.9 % Injected dose and the “Liver % Injected dose” value ([5]; 4 hr pi) was 2.4 % Injected dose. For the same compound, the “Thyroid % Injected dose” value ([5]; 4 hr pi) was 2.00 % Injected dose.
For somatostatin, the “metabolic stability in rat kidney homogenate” value [6] is listed as “rapidly metabolised” and the “susceptibility to metabolism by carboxypeptidases” value [7] is listed as “particularly susceptible to metabolism by carboxypeptidases”.
